Test results as given in patent publication US6913917B2, “Anti-cocaine catalytic antibody” (priority 1996, dated 2005).
Numbering of substitutions follows the chain as printed. Entries after “also recorded” stand apart in the source; their conditions may differ.

What was measured:
[1] = target: Mab 15A10; assay: Inhibition of Mab 15A10 cocaine hydrolysis; type: biochemical, Mouse; settings: for Ki: read-out: inhibition constant (K1 / Ki) for Mab 15A10; for inhibition of Mab 15A10: at 1 mM
[2] = tested on: conscious, unrestrained animals; settings: continuously infused cocaine 1 mg/kg/min, i.v. catecholamine infusion; previous work (19); cited from earlier work
[3] = inhalation of vaporized cocaine; cited from earlier work
[4] = tested on: catalytic mAb; assay: Inhibition of the activity of the catalytic mAbs; type: biochemical, mouse
[5] = tested on: cocaine esterase activity present in serum; assay: Inhibition of cocaine esterase activity present in serum; type: biochemical; settings: 150 μM
[6] = ELISA with TSA 1, 2, and 3 bound to ovalbumin; type: binding
Source text: The rationale for varying the tether sites of TSA to carrier protein (BSA) was to expose unique epitopes and elect catalytic antibodies specific to each immunogen. In order to assess binding specificity, the catalytic antibodies were examined by ELISA with TSA 1, 2, and 3 bound to ovalbumin.

[7] = Plasma concentrations at death by HPLC; type: in vivo, rat; settings: compared to saline or Mab 1C1 control groups, antibody 100 mg/kg
[8] = tested on: cocaine-induced convulsions or death; settings: antibody 100 mg/kg
[9] = tested on: LD90 cocaine; assay: Survival after LD90 cocaine infusion; type: in vivo, rat; settings: for survival to LD90 cocaine infusion: cocaine 16 mg/kg at 1 mg/kg/min
[10] = Hydrolysis of 3H-cocaine by Mab's (kinetic measurements); settings: for Km: Michaelis constant, pH that optimized kcat/ko: in general pH 7.8, 6A12 pH 7.4, 2A10 pH 7.0; for krat: catalytic rate constant (turnover rate), same pH as Km; for kcat/ko: rate acceleration over spontaneous rate (kcat/kuncat)
[11] = tested on: toxicity due to intraperitoneal cocaine; settings: intraperitoneal administration, mouse; cited from earlier work
[12] = Elisa analysis of single chain Fv fragment; type: binding; settings: scFv of Mab 3B9
[13] = cocaine 1 mg/kg/min until death

O=C(O)c1ccccc1 [benzoic acid]
Kd ([1]; read-out: Kd, inhibition of Mab 15A10 in vitro): ~250 µM
Ki [1]: 250 µM

CN1[C@H]2CC[C@@H]1[C@@H](C(=O)O)[C@@H](OC(=O)c1ccccc1)C2 [benzoyl ecgonine]
inhibition of Mab 15A10 [1]: no inhibition

COC(=O)[C@H]1[C@@H](OC(=O)c2ccccc2)C[C@@H]2CC[C@H]1N2C [cocaine]
LD50 [2]: 10 mg/kg
LD90 [2]: 16 mg/kg
peak pulmonary vein concentration [3]: 10 to 30 µM

COC(=O)[C@@H]1[C@H]2CC[C@@H](C[C@@H]1O)N2C [ecgonine methyl ester]
inhibition of Mab 15A10 [1]: not inhibited; also recorded: not observed

CNC(=O)Oc1ccc2c(c1)[C@]1(C)CCN(C)[C@@H]1N2C [eserine, reference compound]
inhibition of the activity of any catalytic mAb ([4]; 1 mM): did not inhibit

COC(=O)C1C(OP(=O)(O)c2ccccc2)CC2CCC1N2C (centres unmarked) [free TSA 4]
inhibition of all catalytic antibodies (enzymes) ([4]; 50 μM): inhibited completely
inhibition of Mab 15A10 catalytic activity ([1]; free TSA 50 μM, bioreactor-produced Mab 15A10): completely inhibited
Ki [1]: 0.23 µM
inhibition of cocaine esterase activity present in serum [5]: did not inhibit

O=C(O)CNC(=O)c1ccccc1 [hippuric acid]
inhibition of Mab 15A10 [1]: did not inhibit; also recorded: not an inhibitor

B1: Mab 15A10: mouse monoclonal anti-cocaine catalytic antibody elicited by TSA 1; most active (antibody, V domains shown)
VH: SGPELVKPGASVKVSCKASGYSFTDYNMYWVKQNHGESLEWIAYIDPSNGDTFYNQKFQGKATVTLDKSSSTAFMHLNSLTSEDSAVYYCARGGGLFAFWGQGTLVTVSA
VL: AVVTQESALTTSPGETVTLTCRSSTGTITSDNYANWVQEKPDHLFSGLIGVNNYRPPGVPARFSGSLTGDKAVLTITGAQTEDEAIYFCALWYSNHWVFGGGTKLTVLG
modifications: mouse
binding specificity by ELISA [6]: bound only TSA-1 and 3
increase in plasma ecgonine methyl ester [7]: > 10 fold
increase of mean lethal dose of cocaine over controls [8]: over 3 fold
dose of cocaine at seizure (average) [8, 13]: 32.5 mg/kg
mean lethal dose of cocaine [8, 13]: 37.0 mg/kg
mean cocaine dose at death ([9]; antibody 5 mg/kg): 8.2 ± 1.0 mg/kg
cocaine dose at death of the single non-survivor ([9]; antibody 15 mg/kg): 15.9 mg/kg
survival to LD90 cocaine infusion ([9]; antibody 15 mg/kg i.v.): Four of five
survival to LD90 cocaine infusion ([9]; antibody 50 mg/kg i.v.): all of five
effect on survival / protection from cocaine toxicity ([9]; result in words, p<0.001): dose-dependent increase in survival; also recorded: significant
Km [10]: 220 µM
kcat (activity) remaining after repetitive turnover ([10]; after 6 hrs and >200 turnovers, of baseline): > 95%
potency relative to the first catalytic antibodies ([10]; at sub-saturating concentrations of cocaine): 100 fold
krat [10]: 2.3 min⁻¹
kcat/ko [10]: 2.3×10^4
kcat/ko ([10]; listed as 15A10): 23000

B2: Mab 9A3: anti-cocaine catalytic monoclonal antibody elicited by TSA 1 (antibody, V domains shown)
VH: SGPELVKPGASVKLSCKASGYPFTDYNMYWVKQSHGKSLEWIGYIDPSNGGIFYNQKFKGRATLTVDKSSNTAFMHLNSLTSEDSAVYYCARGGGLFAYWGQGTLVTVSE
VL: TWPGETVTLTCRSSTGTITTSNYANWVQEKPDHLFSGLIGINNNRPPGVPARFSGSLIGDKAVLTITGAQTEDEAIYFCALWYSNHWVFGGGTKLTVLG
modifications: mouse
binding specificity by ELISA [6]: bound only TSA-1 and 3
Km [10]: 270 µM
krat [10]: 0.015 min⁻¹
kcat/ko [10]: 140

B3: butyrylcholinesterase: the enzyme butyrylcholinesterase; plasma enzyme that deactivates cocaine (protein, UniProt P06276 29-602, looked up)
Cholinesterase: EDDIIIATKNGKVRGMNLTVFGGTVTAFLGIPYAQPPLGRLRFKKPQSLTKWSDIWNATKYANSCCQNIDQSFPGFHGSEMWNPNTDLSEDCLYLNVWIPAPKPKNATVLIWIYGGGFQTGTSSLHVYDGKFLARVERVIVVSMNYRVGALGFLALPGNPEAPGNMGLFDQQLALQWVQKNIAAFGGNPKSVTLFGESAGAASVSLHLLSPGSHSLFTRAILQSGSFNAPWAVTSLYEARNRTLNLAKLTGCSRENETEIIKCLRNKDPQEILLNEAFVVPYGTPLSVNFGPTVDGDFLTDMPDILLELGQFKKTQILVGVNKDEGTAFLVYGAPGFSKDNNSIITRKEFQEGLKIFFPGVSEFGKESILFHYTDWVDDQRPENYREALGDVVGDYNFICPALEFTKKFSEWGNNAFFYYFEHRSSKLPWPEWMGVMHGYEIEFVFGLPLERRDNYTKAEEILSRSIVKRWANFAKYGNPNETQNNSTSWPVFKSTEQKYLTLNTESTRIMTKLRAQQCRFWTSFFPKVLEMTGNIDEAEWEWKAGFHRWNNYMMDWKNQFNDYTSKKESCVGL
effect on toxicity due to intraperitoneal cocaine [11]: inhibit toxicity

B4: Mab 8G4E: anti-cocaine catalytic monoclonal antibody elicited by TSA 3 (antibody, V domains shown)
VH: VQLLESGAELVMPGASVKMSCKASGYTFTDHWMHWVKQRPGQGLEWIGTIDLSDTYTGYNQNFKGRATLTLDESSNTAYMQLSSLTSEDSAVYYCSRRGFDYWGQGTTLTVSS
VL: ELVMTQSPLTLSVTIGQPASISCKSSQSLLYSDGKTYLNWFFQRPGQSPKRLIYLVSKLDSGVPDRFTGSGSGKDFTLKISRVEAEDLGLYYCVQGYTFPLTFGAGTKLELKR
modifications: mouse
binding specificity by ELISA [6]: bound only TSA-1 and 3
Km [10]: 1200 µM
krat [10]: 0.12 min⁻¹
kcat/ko [10]: 1100

B5: Mab 3B9: anti-cocaine catalytic monoclonal antibody elicited by TSA 1 (antibody, V domains shown)
VH: DVQLQESGPGLVKPSQSLSLTCTVTGNSITSDYAWTWIRQFPGNKLEWMGYIRHIYGTRYNPSLISRISITRDTSKNQFFLQLDSVTAEDTATYYCVRYHYYGSAYWGQGTLVTVSAAKTTP
VL: DIVMTQDELSNPVTSGESVSISCRSSRSLLYRDGKTYLNWFLQRPGRSPQLLIYLMSTRSSGVSDRFSGSGSGTDFTLEISRVKAEDVGVYYCQHFVDYPFTFGSGTKLEIKR
modifications: mouse
binding specificity by ELISA [6]: bound all three conjugates
Km [10]: 490 µM
krat [10]: 0.11 min⁻¹
kcat/ko [10]: 1100

B6: Mab 6A12: anti-cocaine catalytic monoclonal antibody elicited by TSA 1 (antibody)
heavy: B5 VH
light: B5 VL with I2M, S60A, C93F, V97E
modifications: mouse
binding specificity by ELISA [6]: bound all three conjugates
Km [10]: 1020 µM
krat [10]: 0.072 min⁻¹
kcat/ko [10]: 880

B7: Mab 2A10: anti-cocaine catalytic monoclonal antibody elicited by TSA 1 (antibody)
heavy: ELVKPSQSLSLTCTVTGYSITSDYAWNWIRQFPGNRLEWMGYIRYSGITRYNPSLKSRISITRDTSKNKFFLQLNSVTTEDTATYYCVRIHYYGYGNWGQGTTLTGLP
light: B5 VL with I2M, R27K, R32E, R47Q, Q50H, S60A, V90A, H95Q, D98E, K112R
modifications: mouse
binding specificity by ELISA [6]: bound all three conjugates
Km [10]: 3000 µM
krat [10]: 0.011 min⁻¹
kcat/ko [10]: 420

B8: single chain Fv fragment: single chain Fv fragment for catalytic monoclonal antibody 3B9, with FLAG and 6×His (protein)
scFv: MEVQLQESGPELVKPSQSLSLTCTVTGNSITSDYAWTWIRQFPGNKLEWMGYIRHIYGTRYNPSLISRISITRDTSKNQFFLQLDSVTAEDTATYYCVRYHYYGSAYWGQGTLVTVSAGMQSGGGGSGGGGSGGAMDIVMTQDELSNPVTSGESVSISCRSSRSLLYRDGKTYLNWFLQRPGRPPQLLIYLMSTRSSGVSDRFSGSGSGTDFTLEISRVKAEDVGVYYCQHFVDYPFTFGSGTKLEIKRADGAPTVSIFFPPSLDYKDDDDKLEHHHHHH
modifications: FLAG and 6xHis tags; mouse
notes: single chain Fv fragment for catalytic monoclonal antibody 3B9, with FLAG and 6×His
binding activity by Elisa [12]: demonstrated binding activity
catalytic activity (release of ^3H-benzoic acid from ^3H-phenyl-cocaine) ([10]; result in words): Enzymatic activity was confirmed

B9: Mab 8G4G: anti-cocaine catalytic monoclonal antibody elicited by TSA 3 (antibody)
heavy: VQLLESGAELVKPGASVELSCRTSGYTFTTYYIYWVKQRPGQGLEWIGGMNPGNGVTYFNEKFKNRATLTVDRSSSIAYMQLSSLTSEDSAVYYCTRVGNSLLTGAEGLWSLSLQ
light: TRAGETVTLTCRSSSGTITANNYGSWVQEKPDHLFTGLIGVSNNRGPGVPARFSGSLIGDKAVLTITGGQTEDEAIYFCALWNSNHFVFGGGTKLTVLGQ
modifications: mouse
binding specificity by ELISA [6]: bound only TSA-1 and 3
Km [10]: 530 µM
krat [10]: 0.60 min⁻¹
kcat/ko [10]: 5500
